Tested on: Escherichia coli TOP10
Assay: shrunken log2 fold change of peptide-encoding DNA abundance (4.5 h post-induction vs induction); higher = less antimicrobial activity (less host growth inhibition)
Details: time post-induction: 4.5 h; library: site-saturation at positions 5, 18, 19, 20
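Further: peptides expressed intracellularly from a pBAD plasmid library in pooled LB shake-flask culture, induced with 0.3% L-arabinose, DNA abundance read by NGS, three biological replicates, DESeq2 with apeglm shrinkage.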

Sequence	shrunken log2 fold change
RRIRKRPPRLPRPRPRPFDAPRP	0.337
RRIRKRPPRLPRPRPRPFDEPRP	0.0269
RRIRKRPPRLPRPRPRPFEDPRP	-0.136
RRIRKRPPRLPRPRPRPFEWPRP	-0.0618
RRIRKRPPRLPRPRPRPFFNPRP	0.0296
RRIRKRPPRLPRPRPRPFGMPRP	-0.00211
RRIRKRPPRLPRPRPRPFIWPRP	-0.0554
RRIRKRPPRLPRPRPRPFLPPRP	-0.0487
RRIRKRPPRLPRPRPRPFPKPRP	0.169
RRIRKRPPRLPRPRPRPFQDPRP	0.118
RRIRKRPPRLPRPRPRPFREPRP	0.223
RRIRKRPPRLPRPRPRPFRTPRP	0.000407
RRIRKRPPRLPRPRPRPFSPPRP	-0.102
RRIRKRPPRLPRPRPRPFVHPRP	-0.254
RRIRKRPPRLPRPRPRPFVNPRP	-0.122
RRIRKRPPRLPRPRPRPFWDPRP	-0.0842
RRIRKRPPRLPRPRPRPFWLPRP	0.341
RRIRKRPPRLPRPRPRPFWRPRP	0.00905
RRIRKRPPRLPRPRPRPFYWPRP	0.144
RRIRKRPPRLPRPRPRPGAKPRP	1.16
RRIRKRPPRLPRPRPRPGCEPRP	1.31
RRIRKRPPRLPRPRPRPGCFPRP	0.421
RRIRKRPPRLPRPRPRPGCNPRP	0.754
RRIRKRPPRLPRPRPRPGDWPRP	0.485
RRIRKRPPRLPRPRPRPGENPRP	0.318

Sequence	shrunken log2 fold change
RRIRKRPPRLPRPRPRPGERPRP	-0.116
RRIRKRPPRLPRPRPRPGFPPRP	0.419
RRIRKRPPRLPRPRPRPGGEPRP	0.753
RRIRKRPPRLPRPRPRPGGNPRP	0.049
RRIRKRPPRLPRPRPRPGHVPRP	-0.165
RRIRKRPPRLPRPRPRPGHYPRP	0.0236
RRIRKRPPRLPRPRPRPGIPPRP	-0.0948
RRIRKRPPRLPRPRPRPGKGPRP	-0.0491
RRIRKRPPRLPRPRPRPGLAPRP	0.977
RRIRKRPPRLPRPRPRPGLKPRP	0.377
RRIRKRPPRLPRPRPRPGLWPRP	0.66
RRIRKRPPRLPRPRPRPGMLPRP	0.542
RRIRKRPPRLPRPRPRPGMNPRP	-0.0284
RRIRKRPPRLPRPRPRPGQPPRP	0.0678
RRIRKRPPRLPRPRPRPGRHPRP	0.227
RRIRKRPPRLPRPRPRPGRPPRP	0.857
RRIRKRPPRLPRPRPRPGSKPRP	-0.0334
RRIRKRPPRLPRPRPRPGWRPRP	0.348
RRIRKRPPRLPRPRPRPGYHPRP	0.0924
RRIRKRPPRLPRPRPRPGYNPRP	0.178
RRIRKRPPRLPRPRPRPHAAPRP	-0.0457
RRIRKRPPRLPRPRPRPHATPRP	1.06
RRIRKRPPRLPRPRPRPHCRPRP	-0.022
RRIRKRPPRLPRPRPRPHCVPRP	-0.0287
RRIRKRPPRLPRPRPRPHDQPRP	0.0273

Sequence	shrunken log2 fold change
RRIRKRPPRLPRPRPRPHECPRP	0.286
RRIRKRPPRLPRPRPRPHEHPRP	0.0272
RRIRKRPPRLPRPRPRPHENPRP	-0.00978
RRIRKRPPRLPRPRPRPHEPPRP	0.0467
RRIRKRPPRLPRPRPRPHFIPRP	0.136
RRIRKRPPRLPRPRPRPHGKPRP	0.109
RRIRKRPPRLPRPRPRPHGPPRP	0.0129
RRIRKRPPRLPRPRPRPHHPPRP	-0.123
RRIRKRPPRLPRPRPRPHKGPRP	-0.0331
RRIRKRPPRLPRPRPRPHKHPRP	-0.119
RRIRKRPPRLPRPRPRPHKRPRP	0.434
RRIRKRPPRLPRPRPRPHMHPRP	-0.186
RRIRKRPPRLPRPRPRPHMLPRP	-0.105
RRIRKRPPRLPRPRPRPHMNPRP	-0.295
RRIRKRPPRLPRPRPRPHMSPRP	0.0205
RRIRKRPPRLPRPRPRPHMVPRP	-0.33
RRIRKRPPRLPRPRPRPHNHPRP	-0.533
RRIRKRPPRLPRPRPRPHSWPRP	0.0385
RRIRKRPPRLPRPRPRPHVGPRP	0.176
RRIRKRPPRLPRPRPRPHVIPRP	-0.257
RRIRKRPPRLPRPRPRPHWAPRP	0.118
RRIRKRPPRLPRPRPRPHWNPRP	-0.296
RRIRKRPPRLPRPRPRPHWSPRP	0.139
RRIRKRPPRLPRPRPRPHYCPRP	-0.00783
RRIRKRPPRLPRPRPRPHYFPRP	-0.268

Sequence	shrunken log2 fold change
RRIRKRPPRLPRPRPRPIAEPRP	0.0504
RRIRKRPPRLPRPRPRPIAMPRP	0.147
RRIRKRPPRLPRPRPRPIDQPRP	0.122
RRIRKRPPRLPRPRPRPIEGPRP	-0.00926
RRIRKRPPRLPRPRPRPIGMPRP	0.213
RRIRKRPPRLPRPRPRPIIIPRP	-0.104
RRIRKRPPRLPRPRPRPIKDPRP	-0.00059
RRIRKRPPRLPRPRPRPIKHPRP	0.567
RRIRKRPPRLPRPRPRPIKKPRP	-0.077
RRIRKRPPRLPRPRPRPIKWPRP	0.00487
RRIRKRPPRLPRPRPRPIKYPRP	0.0425
RRIRKRPPRLPRPRPRPILQPRP	0.0319
RRIRKRPPRLPRPRPRPIMAPRP	0.0791
RRIRKRPPRLPRPRPRPIMFPRP	-0.21
RRIRKRPPRLPRPRPRPINFPRP	-0.962
RRIRKRPPRLPRPRPRPINSPRP	-0.395
RRIRKRPPRLPRPRPRPINVPRP	0.095
RRIRKRPPRLPRPRPRPIQGPRP	-0.0243
RRIRKRPPRLPRPRPRPIQPPRP	-0.00952
RRIRKRPPRLPRPRPRPISNPRP	0.153
RRIRKRPPRLPRPRPRPIVNPRP	0.219
RRIRKRPPRLPRPRPRPIWHPRP	0.248
RRIRKRPPRLPRPRPRPIWRPRP	0.132
RRIRKRPPRLPRPRPRPIYFPRP	0.216
RRIRKRPPRLPRPRPRPKAPPRP	0.62

Sequence	shrunken log2 fold change
RRIRKRPPRLPRPRPRPKCEPRP	0.848
RRIRKRPPRLPRPRPRPKCFPRP	0.00084
RRIRKRPPRLPRPRPRPKCQPRP	0.03
RRIRKRPPRLPRPRPRPKCSPRP	0.00677
RRIRKRPPRLPRPRPRPKDEPRP	0.0833
RRIRKRPPRLPRPRPRPKDHPRP	0.308
RRIRKRPPRLPRPRPRPKEMPRP	0.682
RRIRKRPPRLPRPRPRPKFDPRP	-0.146
RRIRKRPPRLPRPRPRPKFQPRP	0.343
RRIRKRPPRLPRPRPRPKHIPRP	-0.0252
RRIRKRPPRLPRPRPRPKKWPRP	0.406
RRIRKRPPRLPRPRPRPKMHPRP	0.483
RRIRKRPPRLPRPRPRPKNDPRP	0.186
RRIRKRPPRLPRPRPRPKNHPRP	0.109
RRIRKRPPRLPRPRPRPKPFPRP	0.611
RRIRKRPPRLPRPRPRPKPHPRP	0.747
RRIRKRPPRLPRPRPRPKQSPRP	0.525
RRIRKRPPRLPRPRPRPKQYPRP	-0.222
RRIRKRPPRLPRPRPRPKRDPRP	0.539
RRIRKRPPRLPRPRPRPKRFPRP	-0.0257
RRIRKRPPRLPRPRPRPKRHPRP	0.255
RRIRKRPPRLPRPRPRPKSFPRP	-0.125
RRIRKRPPRLPRPRPRPKTEPRP	-0.0466
RRIRKRPPRLPRPRPRPKTSPRP	0.489
RRIRKRPPRLPRPRPRPKWFPRP	-0.039

Sequence	shrunken log2 fold change
RRIRKRPPRLPRPRPRPKWNPRP	0.392
RRIRKRPPRLPRPRPRPKYDPRP	0.38
RRIRKRPPRLPRPRPRPKYFPRP	-0.098
RRIRKRPPRLPRPRPRPLAAPRP	0.847
RRIRKRPPRLPRPRPRPLACPRP	-0.0149
RRIRKRPPRLPRPRPRPLCQPRP	0.206
RRIRKRPPRLPRPRPRPLDDPRP	0.227
RRIRKRPPRLPRPRPRPLDNPRP	0.0829
RRIRKRPPRLPRPRPRPLDRPRP	-0.0461
RRIRKRPPRLPRPRPRPLEFPRP	0.124
RRIRKRPPRLPRPRPRPLEYPRP	-0.123
RRIRKRPPRLPRPRPRPLGNPRP	0.094
RRIRKRPPRLPRPRPRPLGPPRP	0.749
RRIRKRPPRLPRPRPRPLGYPRP	0.202
RRIRKRPPRLPRPRPRPLHSPRP	0.0787
RRIRKRPPRLPRPRPRPLINPRP	-0.149
RRIRKRPPRLPRPRPRPLLWPRP	0.443
RRIRKRPPRLPRPRPRPLMRPRP	1.35
RRIRKRPPRLPRPRPRPLNAPRP	0.731
RRIRKRPPRLPRPRPRPLNQPRP	-0.128
RRIRKRPPRLPRPRPRPLNSPRP	0.00355
RRIRKRPPRLPRPRPRPLNWPRP	0.0951
RRIRKRPPRLPRPRPRPLQMPRP	-0.0261
RRIRKRPPRLPRPRPRPLSSPRP	0.115
RRIRKRPPRLPRPRPRPLTCPRP	-0.000599

Reference: the supplement of paper PMC9112550, “Optimization of the antimicrobial peptide Bac7 by deep mutational scanning” (BMC Biology, 2022)
